Results published in article PMC8724117.

Biological target: dual anticoagulant and antiplatelet (APAC) agent (human) (UniProt P02768)
Assay: atomic force microscopy (tapping mode AFM); APAC alone (1:1000 and 1:20,000 dilution of stock) in PBS with 20 mM MgCl2, drop-casted on mica, imaged in air; volume distribution of 340 molecules evaluated with Gwyddion

- stoichiometry N: 3
Substance: dual anticoagulant and antiplatelet (APAC) agent (from UniProt P02768 25-609)
